From publication PMC6468240

What was measured:
[1] = target: recombinant NgAgo-His (Natronobacterium gregoryi); test: SPR
[2] = target: recombinant E. coli recA, His-tagged (E. coli) (UniProt P0A7G6); test: SPR

Substance | Kd [1] | koff [1] | kon [1] | Kd [2] | koff [2] | kon [2]
recombinant E. coli recA, His-tagged (from UniProt P0A7G6 1-353) (natural protein) | 0.0424 µM | 0.00024 s⁻¹ | 5740 M⁻¹ s⁻¹ | – | – | –
recombinant NgAgo-His (natural protein) | – | – | – | 0.0306 µM | 0.000707 s⁻¹ | 23200 M⁻¹ s⁻¹
